T1: human CEACAM1 on cells (human, UniProt P13688 35-526)
T1 construct: whole, on cells; Used for endogenous CEACAM1 (526mel, Malme 3M, SKmel5, G361, NK 92MI, primary cells) and for 721.221 transfectants; also called hCEACAM1
T1 sequence (looked up): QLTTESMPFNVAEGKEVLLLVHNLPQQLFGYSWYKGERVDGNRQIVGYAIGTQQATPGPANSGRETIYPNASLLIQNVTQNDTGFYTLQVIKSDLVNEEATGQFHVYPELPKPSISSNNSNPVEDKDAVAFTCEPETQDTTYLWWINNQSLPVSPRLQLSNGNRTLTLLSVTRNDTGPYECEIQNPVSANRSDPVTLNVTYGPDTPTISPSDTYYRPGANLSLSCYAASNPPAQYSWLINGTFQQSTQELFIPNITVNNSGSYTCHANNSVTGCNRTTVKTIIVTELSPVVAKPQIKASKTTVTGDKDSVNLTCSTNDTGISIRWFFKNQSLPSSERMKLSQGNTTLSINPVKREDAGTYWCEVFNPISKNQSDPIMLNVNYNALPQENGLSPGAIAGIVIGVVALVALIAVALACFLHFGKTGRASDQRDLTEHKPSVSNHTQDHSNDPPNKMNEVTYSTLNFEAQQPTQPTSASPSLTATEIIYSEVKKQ

T2: recombinant purified human CEACAM1 (human, UniProt P13688 35-428, limits assumed)
T2 construct: also called purified hCEACAM1; Recombinant CEACAM1
T2 sequence (looked up): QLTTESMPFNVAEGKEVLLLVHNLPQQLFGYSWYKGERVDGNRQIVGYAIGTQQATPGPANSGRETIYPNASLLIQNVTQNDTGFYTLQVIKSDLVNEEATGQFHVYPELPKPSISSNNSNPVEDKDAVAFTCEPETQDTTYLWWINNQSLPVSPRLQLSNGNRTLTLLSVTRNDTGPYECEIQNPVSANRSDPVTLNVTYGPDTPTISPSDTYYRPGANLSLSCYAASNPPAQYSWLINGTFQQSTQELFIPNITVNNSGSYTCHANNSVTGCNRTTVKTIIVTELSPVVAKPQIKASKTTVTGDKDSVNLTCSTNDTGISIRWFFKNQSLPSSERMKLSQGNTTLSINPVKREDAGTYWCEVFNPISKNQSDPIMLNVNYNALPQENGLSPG

T3: CEACAM4 transiently expressed on HEK 293T cells (human, UniProt O75871 36-244)
T3 construct: whole, on cells
T3 sequence (looked up): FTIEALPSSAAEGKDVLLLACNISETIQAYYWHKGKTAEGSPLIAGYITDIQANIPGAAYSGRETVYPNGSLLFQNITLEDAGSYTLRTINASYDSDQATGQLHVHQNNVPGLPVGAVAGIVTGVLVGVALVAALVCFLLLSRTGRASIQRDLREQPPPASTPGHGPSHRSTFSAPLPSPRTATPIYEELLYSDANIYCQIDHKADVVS


How the values were obtained:
human CEACAM1 on cells [1] = biological target: T1, human CEACAM1 on cells
[2] = biological target: chimeric molecule composed of the extracellular portion of human CEACAM1 fused to mouse z-chain, on BW cells (human; mouse, UniProt P13688 35-428; P24161 31-164); assay: cell-based or functional assay
[3] = biological target: T2, recombinant purified human CEACAM1; assay: indirect ELISA on plate-bound purified human CEACAM1, double dilutions of CM10
Procedure: The binding specificity of CM10 to human CEACAM1 was tested in ELISA assay using purified human CEACAM1. Indirect ELISA using 23 double dilutions of CM10 were used to generate specific binding curve. The results shown in FIG. 2 represent average O.D. from triplicate±SE. Similar results were obtain from other ten independent experiments.

[4] = biological target: T2, recombinant purified human CEACAM1; assay: SPR, Biacore 3000, antibody immobilized on CM5 chip, recombinant CEACAM1 flowed; three independent experiments
Procedure: (§1) Each antibody was immobilized onto a single channel of a CM5 sensor chip of Biacore3000 instrument by NHS-EDC coupling chemistry.
(§2) Recombinant CEACAM1 was flowed at 50 μl/min over the chip in various concentrations (0.19, 0.39, 0.78, 1.56, 3.12, 6.25, 12.5 and 25 nM). The running buffer was PBS-ET (10 mM p-buffer pH7.4, 150 mM NaCl, 3.4 mM EDTA and 0.005% tween 20).

[5] = biological target: T2, recombinant purified human CEACAM1; assay: SPR, Biacore 3000, antibody immobilized on CM5 chip, recombinant CEACAM1 flowed; average of three independent experiments
Procedure: as §1, §2

[6] = biological target: T3, CEACAM4 transiently expressed on HEK …; assay: flow cytometry, biotinylated CM10 plus Strep-Avidin APC on HEK 293T cells transiently expressing CEACAM-4
Procedure: A standard FACS protocol was used with CM10 conjugated to a Biotin molecule and Strep-Avidin APC as secondary agent. […] Empty histograms represent mAb staining while red histograms represent background staining. At least 10000 cells were used to analyze CM10 binding in each histogram. FAB was calculated by dividing the MFI of the stained cells in the MFI of the background staining.

human CEACAM1 on cells [7] = biological target: T1, human CEACAM1 on cells; assay: blocking assay by FACS: SKMEL5 cells (CEACAM1 positive) pre-incubated with CM10 and washed, then soluble biotinylated CEACAM5 detected with streptavidin-APC
Procedure: CEACAM1 positive cell line (SKMel 5) was incubated with an isotype control or CM10 in various concentrations, unbound CM10 was washed twice, followed by incubation with or without soluble biotinylated CEACAM5. The binding of the biotinylated CEACAM5 to the cells was detected by a secondary strepavidin-APC and FACS analysis. The results represent the mean of duplicate wells±SE. Similar results were obtained in two other independent experiments.

Row | Molecule | mouse IL-2 secretion (ELISA), BW/221+ co-culture, no CM10 (human CEACAM1 on cells [1]) | IC50 (read off the curve) of the block of mouse IL-2 secretion in the BW/221+ co-culture [2] | EC50 (read off the curve) [3] | Kd [4] | Kd [5] | binding result [6] | IC50 (read off the curve) (human CEACAM1 on cells [7])
1 | chimeric molecule composed of the extracellular portion of human CEACAM1 fused to mouse z-chain, on BW cells (from UniProt P13688 35-428; P24161 31-164) (receptor) | 289 pg/mL |  |  |  |  |  | 
2 | chimeric monoclonal antibody CM10 (antibody, human IgG1, kappa, V domains shown, made in CHO cells; PE-conjugated CM10 was used for the QuantiBRITE count; also called CM10.S91; anti CEACAM1 mAb, CM10) VH: QVQLQQSGAELVRPGTSVKVSCKASGYAFTNNLIEWVKQRPGQGLEWIGVINPGSGDTNYNEKFKGKATLTADKSSNTAYMQLSSLTSDDSAVYFCARGDYYGGFAVDYWGQGTSVTVSS VL: DIQMTQTTSSLSASLGDRVTISCRTSQDIGNYLNWYQQKPDGTVKLLIYYTSRLHSGVPSRFSGSGSGTDYSLTISNLEQEDIATYFCQQGKSLPRTFGGGTKLEIKR |  | ~10 ng/mL | ~10 ng/mL | 4.07 to 5.05 nM | 4.56 nM | no binding (tested: 1 µg/ml) | ~0.1 µg/mL

Reference: patent publication US20170355781A1 (CCAM BIOTHERAPEUTICS, published 2017)
